# Measurements published in patent US20080032921A1.
# Read-outs that look alike come from different tables or passages of the source.
# B1: Flu.NP.238 (peptide)
# peptide: QKAMMDQVRESRNPG
# modifications: not checked
# B2: Flu.HA.11 (peptide)
# peptide: VSLVKSDQICIGYHA
# modifications: not checked
# B3: Flu.PB2.384 (peptide)
# peptide: LIQLIVSGRDEQSIA
# modifications: not checked
# B4: Flu.NA.21 peptide … (peptide)
# peptide: SLMLQIGNMISIWVSHS
# modifications: not checked
# B5: Flu.HA.529 peptide … (peptide)
# peptide: IYQILSIYSTVASSLA
# modifications: not checked
# B6: Flu.NS1.68 (peptide)
# peptide: VERILKEESDEALKM
# modifications: not checked
# B7: Flu.HA.532 peptide … (peptide)
# peptide: ILSIYSTVASSLALAI
# modifications: not checked
# B8: Flu.NP.43 (peptide)
# peptide: YIQMCTELKLSDYEG
# modifications: not checked
# B9: Flu.NP.488 (peptide)
# peptide: GSYFFGDNAEEYDN
# modifications: not checked
# B10: Flu.PB1.590 (peptide)
# peptide: AGLLVSDGGPNLYNI
# modifications: not checked
# B11: Flu.PA.694 (peptide)
# peptide: EECLINDPWVLLNAS
# modifications: not checked
# B12: Flu.NA.77 peptide … (peptide)
# peptide: WAVYSKDNSIRIGSK
# modifications: not checked
# B13: Flu.NP.111 (peptide)
# peptide: LILYDKEEIRRIWRQ
# modifications: not checked
# B14: Flu.HA.156 (peptide)
# peptide: KSSFFRNVVWLIKKN
# modifications: not checked
# B15: Flu.NA.115 peptide … (peptide)
# peptide: TQGALLNDKHSNGTVKD
# modifications: not checked
# B16: Flu.PA.658 (peptide)
# peptide: LEGFSAESRKLLLVV
# modifications: not checked
# B17: Flu.PB1.535 (peptide)
# peptide: NNMINNDLGPATAQM
# modifications: not checked
# B18: Flu.PB1.199 (peptide)
# peptide: TKKMVTQRTIGKKKQ
# modifications: not checked
# Legend:
# [1] = molecular target: HLA-DR DRB1*0404 (human); experiment: competition assay, purified HLA, inhibition of 125I-labelled reference peptide
# [2] = molecular target: HLA-DR DRB1*0401 (human); experiment: as above
# [3] = molecular target: HLA-DR DRB1*0405 (human); experiment: as above
# [4] = molecular target: HLA-DR DRB1*0101 (human); experiment: as above
# [5] = molecular target: HLA-DR DRB1*1302 (human); experiment: as above
# [6] = molecular target: HLA-DR DRB1*0301 (human); experiment: as above
# [7] = molecular target: HLA-DR DRB1*0401 (human); experiment: competition vs 125I-labeled peptide, purified HLA
# [8] = molecular target: HLA-DR DRB1*1501 (human); experiment: competition vs 125I-labeled peptide, purified HLA
# [9] = molecular target: HLA-DR DRB1*1302 (human); experiment: competition vs 125I-labeled peptide, purified HLA
# [10] = molecular target: HLA-DR DRB4*0101 (human); experiment: competition vs 125I-labeled peptide, purified HLA
# [11] = molecular target: HLA-DR DRB1*0301 (human); experiment: competition vs 125I-labeled peptide, purified HLA
# [12] = molecular target: HLA-DR DRB1*0101 (human)
# [13] = molecular target: purified HLA-DR DRB5*0101 (human); experiment: competition with 125I-labelled reference peptide, purified HLA
# [14] = molecular target: purified HLA-DR DRB1*1101 (human); experiment: as above
# [15] = molecular target: purified HLA-DR DRB1*0405 (human); experiment: as above
# [16] = molecular target: purified HLA-DR DRB1*0401 (human); experiment: as above
# [17] = molecular target: purified HLA-DR DRB4*0101 (human); experiment: as above
# [18] = molecular target: purified HLA-DR DRB1*0404 (human); experiment: as above
# [19] = molecular target: purified HLA-DR DRB1*0101 (human); experiment: as above
# [20] = molecular target: purified HLA-DR DRB1*1501 (human); experiment: as above
# [21] = molecular target: purified HLA-DR DRB1*1302 (human); experiment: as above
# [22] = molecular target: purified HLA-DR DRB1*0301 (human); experiment: as above
# [23] = molecular target: purified HLA DRB4*0101 (human); experiment: competition with 125I-labelled peptide for purified HLA
# [24] = molecular target: purified HLA DRB1*0401 (human); experiment: as above
# [25] = molecular target: purified HLA DRB1*0101 (human); experiment: as above
# [26] = molecular target: purified HLA DRB1*1302 (human); experiment: as above
# [27] = molecular target: purified HLA DRB1*1501 (human); experiment: as above
# [28] = molecular target: HLA-DR DRB1*0401 (human); experiment: competition with 125I-labelled reference peptide on purified HLA-DR
# [29] = molecular target: HLA-DR DRB1*0101 (human); experiment: as above
# [30] = molecular target: HLA-DR DRB1*1501 (human); experiment: as above
# [31] = molecular target: HLA-DR DRB1*1302 (human); experiment: as above
# [32] = molecular target: HLA-DR DRB4*0101 (human); experiment: as above
# [33] = molecular target: HLA-DR DRB1*0404 (human); experiment: competition with 125I-labelled peptide, purified HLA
# [34] = molecular target: HLA-DR DRB1*0401 (human); experiment: as above
# [35] = molecular target: HLA-DR DRB1*0405 (human); experiment: as above
# [36] = molecular target: HLA-DR DRB1*0101 (human); experiment: as above
# [37] = molecular target: HLA-DR DRB1*1501 (human); experiment: as above
# [38] = molecular target: HLA-DR DRB1*1101 (human); experiment: as above
# [39] = molecular target: HLA-DR DRB1*0301 (human); experiment: as above
# [40] = molecular target: HLA-DR DRB1*0701 (human); experiment: as above
# [41] = molecular target: purified HLA DRB1*0401 (human); experiment: competition with 125I-labelled reference peptide, purified HLA
# [42] = molecular target: purified HLA DRB1*0101 (human); experiment: as above
# [43] = molecular target: purified HLA DRB1*0405 (human); experiment: as above
# [44] = molecular target: purified HLA DRB1*0404 (human); experiment: as above
# [45] = molecular target: purified HLA DRB1*1302 (human); experiment: as above
# [46] = molecular target: purified HLA DRB1*0301 (human); experiment: as above
# [47] = molecular target: HLA-DR DRB1*1302 (human); experiment: competition with 125I-labelled peptide, purified HLA
# [48] = molecular target: HLA-DR DRB1*0301 (human); experiment: competition with 125I-labelled reference peptide on purified HLA-DR
# [49] = molecular target: HLA-DR DRB1*0101 (human); experiment: competition vs 125I-labeled peptide, purified HLA
# [50] = molecular target: HLA-DR DRB4*0101 (human)
# [51] = molecular target: HLA-DR DRB5*0101 (human); experiment: competition with 125I-labelled peptide, purified HLA
# [52] = molecular target: HLA-DR DRB1*0802 (human); experiment: as above
# [53] = molecular target: HLA-DR DRB4*0101 (human); experiment: as above
binder,measurement,setting,value
B1,IC50,[1],1830 nM
same,IC50,[2],856 nM
same,IC50,[3],13100 nM
same,IC50,[4],17600 nM
same,IC50,[5],10500 nM
same,IC50,[6],450 nM
B2,IC50,[7],513 nM
same,IC50,[8],14500 nM
same,IC50,[9],175 nM
same,IC50,[10],32 nM
same,IC50,[11],511 nM
same,IC50,[12],> 10000 nM
B3,IC50,[13],1720 nM
same,IC50,[14],2010 nM
same,IC50,[15],460 nM
same,IC50,[16],83 nM
same,IC50,[17],9.9 nM
same,IC50,[18],90 nM
same,IC50,[19],3220 nM
same,IC50,[20],420 nM
same,IC50,[21],4680 nM
same,IC50,[22],53 nM
B4,IC50,[23],746 nM
same,IC50,[24],480 nM
same,IC50,[25],36 nM
same,IC50,[26],44 nM
same,IC50,[27],34 nM
same,IC50,[28],480 nM
same,IC50,[29],36 nM
same,IC50,[30],34 nM
same,IC50,[31],44 nM
same,IC50,[32],746 nM
B5,IC50,[23],18 nM
same,IC50,[24],89 nM
same,IC50,[25],55 nM
same,IC50,[26],13 nM
same,IC50,[27],4.7 nM
B6,IC50,[1],572 nM
same,IC50,[2],679 nM
same,IC50,[3],> 10000 nM
same,IC50,[4],5190 nM
same,IC50,[5],5060 nM
B7,IC50,[23],824 nM
same,IC50,[24],91 nM
same,IC50,[25],11 nM
same,IC50,[26],7.6 nM
same,IC50,[27],20 nM
B8,IC50,[33],1640 nM
same,IC50,[34],392 nM
same,IC50,[35],2690 nM
same,IC50,[36],320 nM
same,IC50,[37],594 nM
same,IC50,[38],5840 nM
same,IC50,[39],368 nM
same,IC50,[40],5370 nM
B9,IC50,[1],> 10000 nM
same,IC50,[2],1950 nM
same,IC50,[3],65 nM
same,IC50,[4],> 10000 nM
same,IC50,[5],> 10000 nM
same,IC50,[6],139 nM
B10,IC50,[41],3000 nM
same,IC50,[42],8120 nM
same,IC50,[43],> 10000 nM
same,IC50,[44],3490 nM
same,IC50,[45],105 nM
same,IC50,[46],107 nM
B11,IC50,[33],183 nM
same,IC50,[34],1220 nM
same,IC50,[35],15000 nM
same,IC50,[36],34 nM
same,IC50,[47],246 nM
same,IC50,[39],618 nM
B12,IC50,[28],1600 nM
same,IC50,[29],5400 nM
same,IC50,[30],642 nM
same,IC50,[31],36 nM
same,IC50,[32],19500 nM
same,IC50,[48],291 nM
B13,IC50,[1],262 nM
same,IC50,[2],12400 nM
same,IC50,[3],7500 nM
same,IC50,[4],7180 nM
same,IC50,[5],3100 nM
same,IC50,[6],22 nM
B14,IC50,[7],474 nM
same,IC50,[49],46 nM
same,IC50,[8],832 nM
same,IC50,[9],20 nM
same,IC50,[50],> 10000 nM
B15,IC50,[28],19000 nM
same,IC50,[30],822 nM
same,IC50,[31],468 nM
same,IC50,[48],177 nM
same,IC50,[12],> 10000 nM
same,IC50,[50],> 10000 nM
B16,IC50,[33],1150 nM
same,IC50,[34],861 nM
same,IC50,[35],3860 nM
same,IC50,[36],12 nM
same,IC50,[47],2270 nM
same,IC50,[39],661 nM
B17,IC50,[41],798 nM
same,IC50,[42],3080 nM
same,IC50,[43],> 10000 nM
same,IC50,[44],1830 nM
same,IC50,[45],477 nM
same,IC50,[46],527 nM
B18,IC50,[33],62 nM
same,IC50,[34],71 nM
same,IC50,[36],1150 nM
same,IC50,[37],9710 nM
same,IC50,[51],4.1 nM
same,IC50,[38],449 nM
same,IC50,[47],6120 nM
same,IC50,[52],55 nM
same,IC50,[53],57 nM
same,IC50,[40],14100 nM
